Assay [1] has as its target T1, CD96 (UniProt P40200).
T1 sequence (looked up): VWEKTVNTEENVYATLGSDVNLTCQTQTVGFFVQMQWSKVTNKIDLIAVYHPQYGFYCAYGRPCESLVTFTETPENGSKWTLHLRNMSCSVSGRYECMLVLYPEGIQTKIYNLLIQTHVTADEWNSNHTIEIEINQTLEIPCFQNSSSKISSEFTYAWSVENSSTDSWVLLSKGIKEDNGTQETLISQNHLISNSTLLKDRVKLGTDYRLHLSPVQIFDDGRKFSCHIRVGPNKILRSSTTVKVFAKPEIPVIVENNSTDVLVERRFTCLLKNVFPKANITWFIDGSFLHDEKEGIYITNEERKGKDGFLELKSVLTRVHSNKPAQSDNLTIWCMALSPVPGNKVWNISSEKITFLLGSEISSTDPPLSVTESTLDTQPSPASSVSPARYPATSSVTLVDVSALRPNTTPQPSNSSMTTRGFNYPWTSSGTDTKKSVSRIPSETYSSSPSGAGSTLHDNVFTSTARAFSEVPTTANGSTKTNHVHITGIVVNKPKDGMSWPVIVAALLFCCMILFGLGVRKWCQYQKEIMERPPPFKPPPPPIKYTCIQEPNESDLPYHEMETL
The assay can be described thus: flow cytometry, CD96-expressing cells. A general note: A flow cytometer gives signals particle by particle.

Assay [2] has as its target T2, CD226 (human) (UniProt Q15762).
T2 sequence: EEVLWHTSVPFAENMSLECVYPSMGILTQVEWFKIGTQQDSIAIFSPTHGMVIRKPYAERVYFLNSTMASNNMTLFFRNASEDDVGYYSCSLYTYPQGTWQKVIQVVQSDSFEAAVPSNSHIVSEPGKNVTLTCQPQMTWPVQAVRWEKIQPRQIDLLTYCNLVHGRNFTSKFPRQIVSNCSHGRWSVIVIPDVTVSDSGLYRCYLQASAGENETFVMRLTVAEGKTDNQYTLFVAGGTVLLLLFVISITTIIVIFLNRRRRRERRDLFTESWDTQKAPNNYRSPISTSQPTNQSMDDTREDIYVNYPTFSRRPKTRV
The assay can be described thus: flow cytometry, CD226-expressing cells.

The target in the next assay is CD112R (human) (UniProt Q6DKI7). The assay can be described thus: flow cytometry, cells expressing target, 25 nM.
Assay [3] addresses T2, CD226 (human). The experiment in a line: flow cytometry, cells expressing target, 25 nM.
Assay [4] deals with T1, CD96. The assay can be described thus: flow cytometry, cells expressing target, 25 nM.
For a further assay, the target named is T3, TIGIT (human) (UniProt Q495A1).
T3 sequence: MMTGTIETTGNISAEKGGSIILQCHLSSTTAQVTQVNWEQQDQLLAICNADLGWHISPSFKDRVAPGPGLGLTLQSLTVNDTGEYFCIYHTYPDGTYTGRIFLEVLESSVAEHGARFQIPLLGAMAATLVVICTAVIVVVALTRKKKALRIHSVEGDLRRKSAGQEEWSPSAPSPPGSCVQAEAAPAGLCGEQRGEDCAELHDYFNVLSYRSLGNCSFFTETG
The experiment in a line: flow cytometry, cells expressing target, 25 nM.

The target of assay [5] is CD112R, expressed on transfected cells (human) (UniProt Q6DKI7). The assay can be described thus: flow cytometry on transfected cells.
Assay [6] addresses CD96, expressed on transfected cells (UniProt P40200). The assay can be described thus: flow cytometry on transfected cells.
The target in assay [7] is T4, human TIGIT, full length, expressed on transfected cells (human) (UniProt Q495A1).
T4 sequence: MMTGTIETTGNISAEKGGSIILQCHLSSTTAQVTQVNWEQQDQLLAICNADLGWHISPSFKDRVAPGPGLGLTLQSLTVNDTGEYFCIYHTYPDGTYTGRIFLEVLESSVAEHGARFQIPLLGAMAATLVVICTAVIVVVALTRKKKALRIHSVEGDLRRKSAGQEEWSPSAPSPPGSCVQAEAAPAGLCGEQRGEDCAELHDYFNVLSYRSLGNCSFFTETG
The assay can be described thus: flow cytometry on transfected cells.

This is an account of results in patent US20200040059A1.

Sequence of CD112R (human) (Q6DKI7 whole entry): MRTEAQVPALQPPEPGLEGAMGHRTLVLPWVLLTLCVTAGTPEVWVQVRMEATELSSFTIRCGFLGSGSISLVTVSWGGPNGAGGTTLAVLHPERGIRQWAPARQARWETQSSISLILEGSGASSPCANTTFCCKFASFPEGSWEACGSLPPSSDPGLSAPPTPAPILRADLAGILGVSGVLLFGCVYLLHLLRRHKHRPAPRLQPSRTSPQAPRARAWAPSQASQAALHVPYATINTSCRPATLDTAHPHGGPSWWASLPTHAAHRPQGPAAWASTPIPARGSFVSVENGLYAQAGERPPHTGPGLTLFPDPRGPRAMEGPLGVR

B1: CD155 variant IgV-Fc P18T, M36T, S65A, S67E, L79Q, A81T, F91S, G111R (Fc fusion, not shown: a dimerising Fc or GST; small tags and cut ends)
chain: PGTGDVVVQAPTQVTGFLGDSVTLPCYLQVPNTEVTHVSQLTWARHGESGSMAVFHQTQGPAYEESKRLEFVAARQGTELRNASLRMSGLRVEDEGNYTCLFVTFPQRSRSVDIWL
In the case of B1, the figures for the MFI at 11.1 nM with CD96 [1] and with CD226 (human) [2] were 963 MFI and 1130 MFI, respectively.

B2: CD155 variant IgV-Fc P18T, D23G, Q60R, S67L, L79P, F91S, T107M, V115A (Fc fusion, not shown: a dimerising Fc or GST; small tags and cut ends)
chain: PGTGDVVVQAPTQVTGFLGGSVTLPCYLQVPNMEVTHVSQLTWARHGESGSMAVFHRTQGPSYLESKRLEFVAARPGAELRNASLRMSGLRVEDEGNYTCLFVMFPQGSRSADIWL
Consider B2, for which the MFI at 25 nM with CD112R (human) came out at 874 MFI; in the assay with CD226 (human) [3] it was 30900 MFI; with CD96 [4], 109000 MFI; with TIGIT (human), 64100 MFI.

B3: CD155 variant IgV-Fc P18L, K70E, L79P, F91S, V95A, G111R (Fc fusion, not shown: a dimerising Fc or GST; small tags and cut ends)
chain: WPPPGTGDVVVQAPTQVLGFLGDSVTLPCYLQVPNMEVTHVSQLTWARHGESGSMAVFHQTQGPSYSESERLEFVAARPGAELRNASLRMSGLRAEDEGNYTCLFVTFPQRSRSVDIWL
B3: the Fold Change from CD155-ECD with CD96 [1] came to 0.06 fold; with CD226 (human) [2], 0.07 fold. The MFI at 11.1 nM with CD96 [1] was determined as 973 MFI; in the assay with CD226 (human) [2], 1120 MFI.

B4: CD155 variant IgV-Fc V9I, V10I, P18S, F20S, T45A, L79P, F91S, L104M, F108Y, G111R, S112V (Fc fusion, not shown: a dimerising Fc or GST; small tags and cut ends)
chain: WPPPGTGDIIVQAPTQVSGSLGDSVTLPCYLQVPNMEVTHVSQLAWARHGESGSMAVFHQTQGPSYSESKRLEFVAARPGAELRNASLRMSGLRVEDEGNYTCMFVTYPQRVRSVDIWL
For B4, the Fold Change from CD155-ECD with CD96 [1] and with CD226 (human) [2] was 0.06 fold in each case. Further, the figures for the MFI at 11.1 nM with CD96 [1] and in the assay with CD226 (human) [2] were 974 MFI and 973 MFI, respectively.

B5: CD155 variant IgV-Fc P18T, S52A, V57A, Q60R, Q62K, S65C, L79P, F91T, N100Y, T107M (Fc fusion, not shown: a dimerising Fc or GST; large carriers; small tags and cut ends)
chain: PGTGDVVVQAPTQVTGFLGDSVTLPCYLQVPNMEVTHVSQLTWARHGEAGSMAAFHRTKGPCYSESKRLEFVAARPGAELRNASLRMTGLRVEDEGYYTCLFVMFPQGSRSVDIWL
With B5, the MFI at 25 nM stood at 908 MFI in the assay with CD112R (human), 3790 MFI with CD96 [4] and 187000 MFI with TIGIT (human).

B6: CD155 variant T45Q, S52M, L104E IgV-Fc (Fc fusion, not shown: a dimerising Fc or GST; small tags and cut ends)
chain: PGTGDVVVQAPTQVPGFLGDSVTLPCYLQVPNMEVTHVSQLQWARHGEMGSMAVFHQTQGPSYSESKRLEFVAARLGAELRNASLRMFGLRVEDEGNYTCEFVTFPQGSRSVDIWL
Take B6: the MFI at 100 nM in assay [5] was 2600; in [6] it was 6310; in assay [7], 79500.

B7: CD155 variant IgV-Fc P18S, H59R, A76G, R78S, L79P (Fc fusion, not shown: a dimerising Fc or GST; large carriers; small tags and cut ends)
chain: PGTGDVVVQAPTQVSGFLGDSVTLPCYLQVPNMEVTHVSQLTWARHGESGSMAVFRQTQGPSYSESKRLEFVGASPGAELRNASLRMFGLRVEDEGNYTCLFVTFPQGSRSVDIWL
In the case of B7, the MFI at 25 nM was found to be 1010 MFI with CD112R (human), 79400 MFI with CD226 (human) [3], 44500 MFI in the assay with CD96 [4] and 131000 MFI with TIGIT (human).

B8: CD155 variant IgV-Fc P18T, T45Q, T61R, S65N, S67L (Fc fusion, not shown: a dimerising Fc or GST; small tags and cut ends)
chain: PGTGDVVVQAPTQVTGFLGDSVTLPCYLQVPNMEVTHVSQLQWARHGESGSMAVFHQRQGPNYLESKRLEFVAARLGAELRNASLRMFGLRVEDEGNYTCLFVTFPQGSRSVDIWL
The molecule B8 had an MFI at 100 nM in the assay with CD96 [1] of 22800 MFI.
